# Experimental data as given in patent US20100260668A1 (published 2010).
# Target: T1, VEGF (UniProt P15692-4 27-191)
# T1 construct: Bought reagent; also called vascular endothelial growth factor
# Test: BIACORE SPR
# T1 sequence (P15692 other isoform, or with tags, fused parts or gaps limits assumed): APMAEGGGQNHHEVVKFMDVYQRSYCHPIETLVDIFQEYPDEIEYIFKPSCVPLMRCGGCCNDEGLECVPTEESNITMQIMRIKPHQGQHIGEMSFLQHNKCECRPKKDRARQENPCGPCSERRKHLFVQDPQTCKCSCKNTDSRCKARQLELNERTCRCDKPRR
Kd [nM],koff [s⁻¹],kon [M⁻¹ s⁻¹],Binder
0.272,1.8,6.64e+09,"DVD445 (bispecific antibody, human IgG1, kappa, DVD-Ig; N-term; AB069 (DLL4), C-term; AB071 (VEGF); HC linker short, LC linker short; also called DVD445H; DVD445L) heavy: not shown light: DIVMTQSPDSLAVSLGERATISCRASESVDNYGISFMKWFQQKPGQPPKLLIYAASNQGSGVPDRFSGSGSGTDFTLTISSLQAEDVAVYYCQQSKEVPWTFGGGTKVEIKRTVAAPDIQMTQSPSSLSASVGDRVTITCRASQVIRRSLAWYQQKPGKAPKLLIYAASNLASGVPSRFSGSGSGTDFTLTISSLQPEDFATYYCQQSNTSPLTFGQGTKVEIKRTVAAPSVFIFPPSDEQLKSGTASVVCLLNNFYPREAKVQWKVDNALQSGNSQESVTEQDSKDSTYSLSSTLTLSKADYEKHKVYACEVTHQGLSSPVTKSFNRGEC"
0.307,5.43e-05,177000,"DVD457 (bispecific antibody, human IgG1, kappa, L234A L235A, DVD-Ig; N-term; AB069 (DLL4), C-term; AB071 (VEGF); HC linker long, LC linker short; also called DVD457H; DVD457L) heavy: not shown light: DIVMTQSPDSLAVSLGERATISCRASESVDNYGISFMKWFQQKPGQPPKLLIYAASNQGSGVPDRFSGSGSGTDFTLTISSLQAEDVAVYYCQQSKEVPWTFGGGTKVEIKRTVAAPDIQMTQSPSSLSASVGDRVTITCRASQVIRRSLAWYQQKPGKAPKLLIYAASNLASGVPSRFSGSGSGTDFTLTISSLQPEDFATYYCQQSNTSPLTFGQGTKVEIKRTVAAPSVFIFPPSDEQLKSGTASVVCLLNNFYPREAKVQWKVDNALQSGNSQESVTEQDSKDSTYSLSSTLTLSKADYEKHKVYACEVTHQGLSSPVTKSFNRGEC"
0.00148,1.74e-07,118000,"DVD468 (bispecific antibody, human IgG1, kappa, DVD-Ig; N-term; AB071 (VEGF), C-term; AB015 (DLL4); HC linker short, LC linker short; also called DVD468H; DVD468L) heavy: not shown light: DIQMTQSPSSLSASVGDRVTITCRASQVIRRSLAWYQQKPGKAPKLLIYAASNLASGVPSRFSGSGSGTDFTLTISSLQPEDFATYYCQQSNTSPLTFGQGTKVEIKRTVAAPDIQMTQSPSSLSASVGDRVTITCRASQDVSTAVAWYQQKPGKAPKLLIYSASFLYSGVPSRFSGSGSGTDFTLTISSLQPEDFATTYYCQQSYTGTVTFGQGTKVEIKRTVAAPSVFIFPPSDEQLKSGTASVVCLLNNFYPREAKVQWKVDNALQSGNSQESVTEQDSKDSTYSLSSTLTLSKADYEKHKVYACEVTHQGLSSPVTKSFNRGEC"
0.668,8.37e-05,125000,"DVD497 (bispecific antibody, human IgG1, kappa, DVD-Ig; N-term; AB072 (DLL4), C-term; AB071 (VEGF); HC linker long, LC linker long; also called DVD497H; DVD497L) heavy: not shown light: DIQMTQSSSYLSVSLGGRVTITCKASDHINNWLAWYQQKPGNAPRLLISGATSLETGVPSRFSGSGSGKDYTLSITSLQTEDVATYYCQQYWSIPLTFGAGTKLELKRTVAAPSVFIFPPDIQMTQSPSSLSASVGDRVTITCRASQVIRRSLAWYQQKPGKAPKLLIYAASNLASGVPSRFSGSGSGTDFTLTISSLQPEDFATYYCQQSNTSPLTFGQGTKVEIKRTVAAPSVFIFPPSDEQLKSGTASVVCLLNNFYPREAKVQWKVDNALQSGNSQESVTEQDSKDSTYSLSSTLTLSKADYEKHKVYACEVTHQGLSSPVTKSFNRGEC"
0.0613,7.83e-06,128000,"DVD509 (bispecific antibody, human IgG1, kappa, DVD-Ig; N-term; AB072 (DLL4), C-term; AB071 (VEGF); HC linker short, LC linker long; also called DVD509H; DVD509L) heavy: not shown light: DIQMTQSSSYLSVSLGGRVTITCKASDHINNWLAWYQQKPGNAPRLLISGATSLETGVPSRFSGSGSGKDYTLSITSLQTEDVATYYCQQYWSIPLTFGAGTKLELKRTVAAPSVFIFPPDIQMTQSPSSLSASVGDRVTITCRASQVIRRSLAWYQQKPGKAPKLLIYAASNLASGVPSRFSGSGSGTDFTLTISSLQPEDFATYYCQQSNTSPLTFGQGTKVEIKRTVAAPSVFIFPPSDEQLKSGTASVVCLLNNFYPREAKVQWKVDNALQSGNSQESVTEQDSKDSTYSLSSTLTLSKADYEKHKVYACEVTHQGLSSPVTKSFNRGEC"
1.45,0.000585,405000,"DVD515 (bispecific antibody, human IgG1, kappa, DVD-Ig; N-term; AB073 (DLL4), C-term; AB071 (VEGF); HC linker short, LC linker short; also called DVD515H; DVD515L) heavy: not shown light: QAVVTQESALTTSPGETVTLTCRSSTGAVTTSNYANWVQEKPDHLFTGLIGGTNNRAPGVPARFSGSLIGDKAALTITGAQTEDEAIYFCALWYSNHWVFGGGTKLTVLGQPKAAPDIQMTQSPSSLSASVGDRVTITCRASQVIRRSLAWYQQKPGKAPKLLIYAASNLASGVPSRFSGSGSGTDFTLTISSLQPEDFATYYCQQSNTSPLTFGQGTKVEIKRTVAAPSVFIFPPSDEQLKSGTASVVCLLNNFYPREAKVQWKVDNALQSGNSQESVTEQDSKDSTYSLSSTLTLSKADYEKHKVYACEVTHQGLSSPVTKSFNRGEC"
0.842,0.000446,529000,"DVD527 (bispecific antibody, human IgG1, kappa, DVD-Ig; N-term; AB073 (DLL4), C-term; AB071 (VEGF); HC linker long, LC linker short; also called DVD527H; DVD527L) heavy: not shown light: QAVVTQESALTTSPGETVTLTCRSSTGAVTTSNYANWVQEKPDHLFTGLIGGTNNRAPGVPARFSGSLIGDKAALTITGAQTEDEAIYFCALWYSNHWVFGGGTKLTVLGQPKAAPDIQMTQSPSSLSASVGDRVTITCRASQVIRRSLAWYQQKPGKAPKLLIYAASNLASGVPSRFSGSGSGTDFTLTISSLQPEDFATYYCQQSNTSPLTFGQGTKVEIKRTVAAPSVFIFPPSDEQLKSGTASVVCLLNNFYPREAKVQWKVDNALQSGNSQESVTEQDSKDSTYSLSSTLTLSKADYEKHKVYACEVTHQGLSSPVTKSFNRGEC"
